From patent publication US20140274782A1, “AFFINITY REAGENTS AND METHODS FOR DETECTION, PURIFICATION, AND PROTEOMIC ANALYSIS OF METHYLATED PROTEINS” (The Board of Trustees of the Leland Stanford Junior …, priority 2013, published 2014)

Columns and labels:
Assay in all cases: ProtoArray, G9a array SNR minus GST array SNR
[1] = target: CTXN1, G9a-methylated (human) (UniProt P60606)
[2] = target: ZNF695, G9a-methylated (human) (UniProt Q8IW36)
[3] = target: RTN1, G9a-methylated (human) (UniProt Q16799)
[4] = target: CSF3, G9a-methylated (human) (UniProt P09919)
[5] = target: CRYZL1, G9a-methylated (human) (UniProt O95825)
[6] = target: SSR4, G9a-methylated (human) (UniProt P51571)
[7] = target: YPEL5, G9a-methylated (human) (UniProt P62699)
[8] = target: TGDS, G9a-methylated (human) (UniProt O95455)
[9] = target: C10orf58, G9a-methylated (human) (UniProt Q9BRX8)
[10] = target: SMYD5, G9a-methylated (human) (UniProt Q6GMV2)
[11] = target: SMYD3, G9a-methylated (human) (UniProt Q9H7B4)
[12] = target: CDC2, G9a-methylated (human) (UniProt P06493)
[13] = target: CUTC, G9a-methylated (human) (UniProt Q9NTM9)
[14] = target: PAEP, G9a-methylated (human) (UniProt P09466)
[15] = target: TTC27, G9a-methylated (human) (UniProt Q6P3X3)
[16] = target: KRR1, G9a-methylated (human) (UniProt Q13601)
[17] = target: KIFC1, G9a-methylated (human) (UniProt Q9BW19)
[18] = target: LYPLAL1, G9a-methylated (human) (UniProt Q5VWZ2)
[19] = target: RAB7B, G9a-methylated (human) (UniProt Q96AH8)
[20] = target: RASSF4, G9a-methylated (human) (UniProt Q9H2L5)
[21] = target: ZRANB1, G9a-methylated (human) (UniProt Q9UGI0)
[22] = target: SCGB1A1, G9a-methylated (human) (UniProt P11684)
[23] = target: BLCAP, G9a-methylated (human) (UniProt P62952)
[24] = target: TCTA, G9a-methylated (human) (UniProt P57738)
[25] = target: C12orf60, G9a-methylated (human) (UniProt Q5U649)
[26] = target: ARL6IP1, G9a-methylated (human) (UniProt Q15041)
[27] = target: SAR1B, G9a-methylated (human) (UniProt Q9Y6B6)
[28] = target: GGPS1, G9a-methylated (human) (UniProt O95749)
[29] = target: SMAP1, G9a-methylated (human) (UniProt Q8IYB5)
[30] = target: GPX1, G9a-methylated (human) (UniProt P07203)
[31] = target: CMTM3, G9a-methylated (human) (UniProt Q96MX0)
[32] = target: RPL14, G9a-methylated (human) (UniProt P50914)
[33] = target: GFOD1, G9a-methylated (human) (UniProt Q9NXC2)
[34] = target: SCGB2A2, G9a-methylated (human) (UniProt Q13296)
[35] = target: GPX5, G9a-methylated (human) (UniProt O75715)
[36] = target: DIRAS1, G9a-methylated (human) (UniProt O95057)
[37] = target: CNTD1, G9a-methylated (human) (UniProt Q8N815)
[38] = target: CRB3, G9a-methylated (human) (UniProt Q9BUF7)
[39] = target: CALN1, G9a-methylated (human) (UniProt Q9BXU9)
[40] = target: MGC10433 (RNA-binding protein 42), G9a-methylated (human) (UniProt Q9BTD8)
Sequence of MGC10433 (RNA-binding protein 42), G9a-methylated (human) (Q9BTD8 whole entry): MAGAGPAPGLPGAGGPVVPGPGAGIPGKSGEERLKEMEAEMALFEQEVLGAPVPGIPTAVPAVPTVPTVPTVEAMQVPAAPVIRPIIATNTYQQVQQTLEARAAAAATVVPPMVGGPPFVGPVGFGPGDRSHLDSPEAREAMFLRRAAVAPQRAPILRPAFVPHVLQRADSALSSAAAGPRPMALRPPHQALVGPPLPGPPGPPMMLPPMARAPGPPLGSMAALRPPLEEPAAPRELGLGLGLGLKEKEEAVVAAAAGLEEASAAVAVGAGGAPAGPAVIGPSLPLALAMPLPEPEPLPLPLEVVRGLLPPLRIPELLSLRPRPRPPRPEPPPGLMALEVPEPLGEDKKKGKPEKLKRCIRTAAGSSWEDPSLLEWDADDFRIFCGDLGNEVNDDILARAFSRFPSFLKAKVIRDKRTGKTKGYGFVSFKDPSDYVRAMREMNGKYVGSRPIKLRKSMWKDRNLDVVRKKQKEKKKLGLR

Sequence of KRR1, G9a-methylated (human) (Q13601 whole entry): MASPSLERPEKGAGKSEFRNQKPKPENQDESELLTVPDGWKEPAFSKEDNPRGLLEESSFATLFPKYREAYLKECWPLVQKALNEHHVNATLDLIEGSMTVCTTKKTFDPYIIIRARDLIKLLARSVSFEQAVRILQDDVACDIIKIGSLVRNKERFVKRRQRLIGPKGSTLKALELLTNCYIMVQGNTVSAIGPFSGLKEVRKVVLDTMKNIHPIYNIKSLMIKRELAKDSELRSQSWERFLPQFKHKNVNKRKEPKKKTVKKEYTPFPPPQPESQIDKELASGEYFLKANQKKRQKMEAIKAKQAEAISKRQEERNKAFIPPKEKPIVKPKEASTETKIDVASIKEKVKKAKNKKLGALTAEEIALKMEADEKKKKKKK
Sequence of SAR1B, G9a-methylated (human) (Q9Y6B6 whole entry): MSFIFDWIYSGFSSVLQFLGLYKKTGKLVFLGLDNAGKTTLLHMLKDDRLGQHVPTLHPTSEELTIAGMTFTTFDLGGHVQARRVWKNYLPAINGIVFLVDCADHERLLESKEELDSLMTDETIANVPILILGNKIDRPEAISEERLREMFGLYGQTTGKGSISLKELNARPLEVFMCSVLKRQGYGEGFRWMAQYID
Sequence of SCGB1A1, G9a-methylated (human) (P11684 22-91 limits assumed): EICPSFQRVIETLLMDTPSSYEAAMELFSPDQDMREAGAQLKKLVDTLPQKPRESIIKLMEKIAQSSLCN
Sequence of SMAP1, G9a-methylated (human) (Q8IYB5 whole entry): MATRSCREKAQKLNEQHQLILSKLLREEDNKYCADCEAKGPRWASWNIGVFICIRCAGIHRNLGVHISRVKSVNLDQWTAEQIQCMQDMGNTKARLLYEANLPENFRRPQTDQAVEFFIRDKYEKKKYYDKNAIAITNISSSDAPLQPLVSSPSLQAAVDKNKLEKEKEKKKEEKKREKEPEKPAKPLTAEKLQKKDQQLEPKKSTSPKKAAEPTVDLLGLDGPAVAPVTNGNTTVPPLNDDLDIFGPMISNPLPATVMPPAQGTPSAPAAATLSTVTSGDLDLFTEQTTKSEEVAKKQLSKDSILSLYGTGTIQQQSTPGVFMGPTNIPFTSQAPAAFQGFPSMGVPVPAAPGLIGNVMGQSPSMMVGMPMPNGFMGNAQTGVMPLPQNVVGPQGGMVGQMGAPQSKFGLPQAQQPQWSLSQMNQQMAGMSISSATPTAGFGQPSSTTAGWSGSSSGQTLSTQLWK
Sequence of CUTC, G9a-methylated (human) (Q9NTM9 whole entry): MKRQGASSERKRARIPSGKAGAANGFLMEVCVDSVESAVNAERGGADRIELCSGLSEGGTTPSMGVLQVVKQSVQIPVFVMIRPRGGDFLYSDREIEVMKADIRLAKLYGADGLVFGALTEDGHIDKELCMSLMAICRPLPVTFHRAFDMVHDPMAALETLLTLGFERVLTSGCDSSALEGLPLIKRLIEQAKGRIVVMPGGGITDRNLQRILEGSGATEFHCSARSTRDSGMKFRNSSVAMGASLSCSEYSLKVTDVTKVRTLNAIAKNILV
Sequence of CRB3, G9a-methylated (human) (Q9BUF7 27-120 limits assumed): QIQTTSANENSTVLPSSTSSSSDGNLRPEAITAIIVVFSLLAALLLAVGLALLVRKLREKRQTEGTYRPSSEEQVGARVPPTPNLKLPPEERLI
Sequence of LYPLAL1, G9a-methylated (human) (Q5VWZ2 whole entry): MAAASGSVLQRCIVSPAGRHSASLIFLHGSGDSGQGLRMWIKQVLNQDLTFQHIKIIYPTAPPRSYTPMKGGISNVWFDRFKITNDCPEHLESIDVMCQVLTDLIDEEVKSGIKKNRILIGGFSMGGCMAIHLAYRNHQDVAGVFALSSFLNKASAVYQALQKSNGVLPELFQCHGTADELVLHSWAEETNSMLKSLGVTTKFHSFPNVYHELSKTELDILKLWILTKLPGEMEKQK
Sequence of ZRANB1, G9a-methylated (human) (Q9UGI0 whole entry): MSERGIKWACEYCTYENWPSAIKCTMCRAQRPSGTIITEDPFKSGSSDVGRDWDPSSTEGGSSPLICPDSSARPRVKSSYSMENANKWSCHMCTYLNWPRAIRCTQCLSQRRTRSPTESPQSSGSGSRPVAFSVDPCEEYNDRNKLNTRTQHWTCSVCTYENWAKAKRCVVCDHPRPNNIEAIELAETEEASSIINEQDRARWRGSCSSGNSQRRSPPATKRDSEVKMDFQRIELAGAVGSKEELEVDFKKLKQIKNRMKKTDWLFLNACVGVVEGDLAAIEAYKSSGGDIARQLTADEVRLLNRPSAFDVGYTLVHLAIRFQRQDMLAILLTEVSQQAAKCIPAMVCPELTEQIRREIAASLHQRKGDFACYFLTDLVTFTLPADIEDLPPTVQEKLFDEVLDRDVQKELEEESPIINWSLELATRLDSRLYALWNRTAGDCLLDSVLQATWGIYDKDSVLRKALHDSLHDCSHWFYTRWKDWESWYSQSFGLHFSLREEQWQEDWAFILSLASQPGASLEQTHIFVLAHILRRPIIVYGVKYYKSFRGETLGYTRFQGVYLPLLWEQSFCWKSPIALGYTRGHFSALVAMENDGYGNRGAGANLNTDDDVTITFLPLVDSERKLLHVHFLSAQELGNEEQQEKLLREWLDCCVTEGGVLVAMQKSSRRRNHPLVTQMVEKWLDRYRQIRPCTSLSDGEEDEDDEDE
Sequence of C10orf58, G9a-methylated (human) (Q9BRX8 whole entry): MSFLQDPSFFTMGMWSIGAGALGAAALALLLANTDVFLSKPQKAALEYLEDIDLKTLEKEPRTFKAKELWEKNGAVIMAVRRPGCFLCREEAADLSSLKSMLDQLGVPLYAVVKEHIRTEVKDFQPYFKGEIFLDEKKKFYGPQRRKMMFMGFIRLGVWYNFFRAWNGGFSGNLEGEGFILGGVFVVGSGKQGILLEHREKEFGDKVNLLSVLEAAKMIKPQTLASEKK
Sequence of CRYZL1, G9a-methylated (human) (O95825 whole entry): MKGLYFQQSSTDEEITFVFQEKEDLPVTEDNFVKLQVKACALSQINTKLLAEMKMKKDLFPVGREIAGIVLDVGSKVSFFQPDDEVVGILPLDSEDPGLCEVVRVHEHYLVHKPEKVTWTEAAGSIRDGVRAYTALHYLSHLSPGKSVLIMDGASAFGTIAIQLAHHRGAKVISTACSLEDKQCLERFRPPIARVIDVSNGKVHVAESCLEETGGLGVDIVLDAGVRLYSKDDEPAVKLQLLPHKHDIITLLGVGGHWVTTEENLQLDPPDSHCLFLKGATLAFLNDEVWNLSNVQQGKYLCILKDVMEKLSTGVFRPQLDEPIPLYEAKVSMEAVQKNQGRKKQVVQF
Sequence of RTN1, G9a-methylated (human) (Q16799 other isoform, or with tags, fused parts or gaps limits assumed): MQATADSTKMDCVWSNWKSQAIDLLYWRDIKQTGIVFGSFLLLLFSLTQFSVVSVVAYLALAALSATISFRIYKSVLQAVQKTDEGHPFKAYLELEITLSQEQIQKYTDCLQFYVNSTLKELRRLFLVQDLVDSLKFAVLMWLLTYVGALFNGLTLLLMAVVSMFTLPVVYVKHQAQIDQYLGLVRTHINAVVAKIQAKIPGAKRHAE
Sequence of CTXN1, G9a-methylated (human) (P60606 whole entry): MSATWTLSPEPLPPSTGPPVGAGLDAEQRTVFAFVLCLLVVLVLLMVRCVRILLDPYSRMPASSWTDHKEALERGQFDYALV
Sequence of ARL6IP1, G9a-methylated (human) (Q15041 whole entry): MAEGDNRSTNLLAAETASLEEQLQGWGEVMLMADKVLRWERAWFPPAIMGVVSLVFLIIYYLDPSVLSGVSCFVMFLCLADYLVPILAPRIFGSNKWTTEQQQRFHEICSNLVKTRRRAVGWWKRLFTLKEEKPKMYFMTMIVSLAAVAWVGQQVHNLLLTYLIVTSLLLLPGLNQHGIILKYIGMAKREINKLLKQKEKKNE
Sequence of CMTM3, G9a-methylated (human) (Q96MX0 whole entry): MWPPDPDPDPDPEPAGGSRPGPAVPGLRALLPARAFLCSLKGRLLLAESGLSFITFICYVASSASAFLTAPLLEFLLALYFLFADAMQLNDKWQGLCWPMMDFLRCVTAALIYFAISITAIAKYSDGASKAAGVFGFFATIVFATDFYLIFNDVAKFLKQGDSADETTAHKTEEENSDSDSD
Sequence of SMYD3, G9a-methylated (human) (Q9H7B4 whole entry): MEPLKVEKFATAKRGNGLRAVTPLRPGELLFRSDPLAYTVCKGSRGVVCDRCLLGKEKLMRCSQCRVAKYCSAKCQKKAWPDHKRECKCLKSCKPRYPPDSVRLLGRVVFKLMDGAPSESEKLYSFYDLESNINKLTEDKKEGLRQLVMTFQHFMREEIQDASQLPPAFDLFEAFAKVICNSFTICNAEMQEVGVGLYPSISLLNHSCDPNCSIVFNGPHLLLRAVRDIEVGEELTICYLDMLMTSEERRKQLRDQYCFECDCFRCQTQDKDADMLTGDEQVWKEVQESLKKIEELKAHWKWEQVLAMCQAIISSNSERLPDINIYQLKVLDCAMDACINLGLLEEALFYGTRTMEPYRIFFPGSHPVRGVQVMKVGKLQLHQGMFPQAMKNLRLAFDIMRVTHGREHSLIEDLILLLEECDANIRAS
Sequence of SCGB2A2, G9a-methylated (human) (Q13296 19-93 limits assumed): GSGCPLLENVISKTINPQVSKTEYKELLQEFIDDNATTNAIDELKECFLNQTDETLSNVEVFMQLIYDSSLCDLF
Sequence of TCTA, G9a-methylated (human) (P57738 whole entry): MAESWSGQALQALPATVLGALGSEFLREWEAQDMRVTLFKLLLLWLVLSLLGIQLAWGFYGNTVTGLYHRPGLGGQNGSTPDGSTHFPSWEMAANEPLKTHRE

- G9a-GST [1]: 18.7
- G9a-GST [2]: 18.8
- G9a-GST [3]: 13.8
- G9a-GST [4]: 17.7
- G9a-GST [5]: 12.6
- G9a-GST [6]: 13
- G9a-GST [7]: 14.2
- G9a-GST [8]: 12.4
- G9a-GST [9]: 16
- G9a-GST [10]: 19.5
- G9a-GST [11]: 16.3
- G9a-GST [12]: 26
- G9a-GST [13]: 12.9
- G9a-GST [14]: 16.5
- G9a-GST [15]: 20.2
- G9a-GST [16]: 29.3
- G9a-GST [17]: 62.4
- G9a-GST [18]: 15.6
- G9a-GST [19]: 13
- G9a-GST [20]: 14.6
- G9a-GST [21]: 13.6
- G9a-GST [22]: 18.4
- G9a-GST [23]: 25.5
- G9a-GST [24]: 15.2
- G9a-GST [25]: 12.5
- G9a-GST [26]: 20.8
- G9a-GST [27]: 19.3
- G9a-GST [28]: 12.8
- G9a-GST [29]: 20.2
- G9a-GST [30]: 14.5
- G9a-GST [31]: 13.7
- G9a-GST [32]: 17.7
- G9a-GST [33]: 16
- G9a-GST [34]: 13.8
- G9a-GST [35]: 25.6
- G9a-GST [36]: 28.2
- G9a-GST [37]: 12.2
- G9a-GST [38]: 15.5
- G9a-GST [39]: 18.6
- G9a-GST [40]: 14.5
Substance: 3× Flag-3×MBT (designed binder)
